# Test results published in article PMC9482650, “Quantitative fragmentomics allow affinity mapping of interactomes” (Nature Communications, 2022).
# T1: APBA1_1, Q02410
# T1 sequence (Q02410 651-752, limits assumed, looked up): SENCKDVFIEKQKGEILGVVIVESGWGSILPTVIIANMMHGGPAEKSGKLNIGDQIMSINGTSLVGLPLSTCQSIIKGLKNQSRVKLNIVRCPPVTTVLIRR
# T2: APBA1_2, Q02410
# T2 sequence (Q02410 742-832, limits assumed, looked up): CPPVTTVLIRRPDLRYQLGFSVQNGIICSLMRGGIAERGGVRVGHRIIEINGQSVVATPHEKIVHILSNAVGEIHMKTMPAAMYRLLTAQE
# T3: ARHGAP21, Q5T5U3
# T3 sequence (Q5T5U3 45-169, limits assumed, looked up): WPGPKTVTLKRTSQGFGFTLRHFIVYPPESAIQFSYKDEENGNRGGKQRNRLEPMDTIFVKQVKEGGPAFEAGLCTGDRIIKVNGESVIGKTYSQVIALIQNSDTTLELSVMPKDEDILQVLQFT
# T4: DLG3_3, Q92796
# T4 sequence (Q92796 374-475, limits assumed, looked up): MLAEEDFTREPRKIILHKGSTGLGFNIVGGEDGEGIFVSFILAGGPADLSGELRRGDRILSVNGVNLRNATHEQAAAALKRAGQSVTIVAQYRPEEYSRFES
# T5: MPDZ_10, O75970
# T5 sequence (O75970 1624-1722, limits assumed, looked up): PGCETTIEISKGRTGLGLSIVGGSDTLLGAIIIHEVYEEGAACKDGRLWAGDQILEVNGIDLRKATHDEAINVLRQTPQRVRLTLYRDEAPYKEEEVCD
# T6: MPDZ_5, O75970
# T6 sequence (O75970 695-796, limits assumed, looked up): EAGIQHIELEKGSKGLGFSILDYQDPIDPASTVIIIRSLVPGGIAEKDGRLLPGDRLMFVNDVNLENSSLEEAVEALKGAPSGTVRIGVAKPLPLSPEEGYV
# T7: MPP7, Q5T2T1
# T7 sequence (Q5T2T1 134-230, limits assumed, looked up): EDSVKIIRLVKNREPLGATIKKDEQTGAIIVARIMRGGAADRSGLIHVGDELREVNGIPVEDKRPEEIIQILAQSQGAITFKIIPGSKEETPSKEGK
# T8: NHERF3_1, Q5T2W1
# T8 sequence (Q5T2W1 4-100, limits assumed, looked up): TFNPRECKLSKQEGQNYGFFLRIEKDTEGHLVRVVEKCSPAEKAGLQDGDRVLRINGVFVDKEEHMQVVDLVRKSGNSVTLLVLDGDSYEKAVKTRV
# T9: PDZD2_2, O15018
# T9 sequence (O15018 329-429, limits assumed, looked up): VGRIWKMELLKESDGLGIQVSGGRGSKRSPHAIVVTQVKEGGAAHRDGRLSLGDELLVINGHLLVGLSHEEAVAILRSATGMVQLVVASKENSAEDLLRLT
# T10: TX1BP3, O14907
# T10 sequence (O14907 10-122, limits assumed, looked up): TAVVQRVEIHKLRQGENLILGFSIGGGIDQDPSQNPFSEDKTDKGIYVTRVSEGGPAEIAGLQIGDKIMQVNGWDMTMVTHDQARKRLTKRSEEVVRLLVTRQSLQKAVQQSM
# Biological target: T1, APBA1_1, Q02410
# Test: holdup assay
# Design: key: below the threshold = too weak to quantify, mostly under pKd 3.1 to 4
# Details: plain residues with an end cap or a label only (N-terminal biotin on a linker: ado-ado)
row,Binder,pKd
1,"MQHQRTHTRV [ZSCAN30, Q86W11]",below the threshold
2,"NIAESLESLV [PTPRZ1, P23471]",below the threshold

# Biological target: T2, APBA1_2, Q02410
# Test: holdup assay
# Design: key: below the threshold = too weak to quantify, mostly under pKd 3.1 to 4
# Details: plain residues with an end cap or a label only (N-terminal biotin on a linker: ado-ado)
row,Binder,pKd
1,"MQHQRTHTRV [ZSCAN30, Q86W11]",3.52
2,"NIAESLESLV [PTPRZ1, P23471]",below the threshold

# Biological target: T3, ARHGAP21, Q5T5U3
# Test: holdup assay
# Design: key: below the threshold = too weak to quantify, mostly under pKd 3.1 to 4
# Details: plain residues with an end cap or a label only (N-terminal biotin on a linker: ado-ado)
row,Binder,pKd
1,"MQHQRTHTRV [ZSCAN30, Q86W11]",3.92
2,"NIAESLESLV [PTPRZ1, P23471]",below the threshold

# Biological target: T4, DLG3_3, Q92796
# Test: holdup assay
# Design: key: below the threshold = too weak to quantify, mostly under pKd 3.1 to 4
# Details: plain residues with an end cap or a label only (N-terminal biotin on a linker: ado-ado)
row,Binder,pKd
1,"MQHQRTHTRV [ZSCAN30, Q86W11]",4.3
2,"NIAESLESLV [PTPRZ1, P23471]",below the threshold

# Biological target: DLG4_1, P78352
# Test: holdup assay
# Design: key: below the threshold = too weak to quantify, mostly under pKd 3.1 to 4
# Details: plain residues with an end cap or a label only (N-terminal biotin on a linker: ado-ado)
# DLG4_1, P78352, sequence (P78352 62-152): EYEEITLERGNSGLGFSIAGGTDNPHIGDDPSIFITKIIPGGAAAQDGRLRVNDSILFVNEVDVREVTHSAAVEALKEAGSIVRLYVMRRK
row,Binder,pKd
1,"MQHQRTHTRV [ZSCAN30, Q86W11]",4.59
2,"NIAESLESLV [PTPRZ1, P23471]",4.65

# Biological target: GRID2IP_2, A4D2P6
# Test: holdup assay
# Design: key: below the threshold = too weak to quantify, mostly under pKd 3.1 to 4
# Details: plain residues with an end cap or a label only (N-terminal biotin on a linker: ado-ado)
# GRID2IP_2, A4D2P6, sequence (A4D2P6 272-370): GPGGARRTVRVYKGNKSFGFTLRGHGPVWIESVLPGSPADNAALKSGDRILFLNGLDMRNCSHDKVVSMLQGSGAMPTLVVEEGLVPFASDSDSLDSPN
row,Binder,pKd
1,"MQHQRTHTRV [ZSCAN30, Q86W11]",3.77
2,"NIAESLESLV [PTPRZ1, P23471]",below the threshold

# Biological target: GRIP2_3, Q9C0E4
# Test: holdup assay
# Design: key: below the threshold = too weak to quantify, mostly under pKd 3.1 to 4
# Details: plain residues with an end cap or a label only (N-terminal biotin on a linker: ado-ado)
# GRIP2_3, Q9C0E4, sequence (Q9C0E4 238-339): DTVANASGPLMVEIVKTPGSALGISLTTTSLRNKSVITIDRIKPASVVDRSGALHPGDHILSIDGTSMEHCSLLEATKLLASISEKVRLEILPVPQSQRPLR
row,Binder,pKd
1,"MQHQRTHTRV [ZSCAN30, Q86W11]",below the threshold
2,"NIAESLESLV [PTPRZ1, P23471]",below the threshold

# Biological target: GRIP2_5, Q9C0E4
# Test: holdup assay
# Design: key: below the threshold = too weak to quantify, mostly under pKd 3.1 to 4
# Details: plain residues with an end cap or a label only (N-terminal biotin on a linker: ado-ado)
# GRIP2_5, Q9C0E4, sequence (Q9C0E4 544-642): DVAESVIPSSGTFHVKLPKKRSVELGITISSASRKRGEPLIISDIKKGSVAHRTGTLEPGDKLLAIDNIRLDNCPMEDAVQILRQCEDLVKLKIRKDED
row,Binder,pKd
1,"MQHQRTHTRV [ZSCAN30, Q86W11]",below the threshold
2,"NIAESLESLV [PTPRZ1, P23471]",below the threshold

# Biological target: IL16_1, Q14005
# Test: holdup assay
# Design: key: below the threshold = too weak to quantify, mostly under pKd 3.1 to 4
# Details: plain residues with an end cap or a label only (N-terminal biotin on a linker: ado-ado)
# IL16_1, Q14005, sequence (Q14005 210-306): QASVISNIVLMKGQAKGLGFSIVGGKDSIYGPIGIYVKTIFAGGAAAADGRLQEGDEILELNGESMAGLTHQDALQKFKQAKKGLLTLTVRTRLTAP
row,Binder,pKd
1,"MQHQRTHTRV [ZSCAN30, Q86W11]",below the threshold
2,"NIAESLESLV [PTPRZ1, P23471]",4.6

# Biological target: Inadl_4, Q8NI35
# Test: holdup assay
# Design: key: below the threshold = too weak to quantify, mostly under pKd 3.1 to 4
# Details: plain residues with an end cap or a label only (N-terminal biotin on a linker: ado-ado)
# Inadl_4, Q8NI35, sequence (Q8NI35 547-651): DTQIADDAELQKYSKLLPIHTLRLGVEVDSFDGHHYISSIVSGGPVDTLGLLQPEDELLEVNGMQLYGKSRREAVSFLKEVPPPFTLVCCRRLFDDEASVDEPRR
row,Binder,pKd
1,"MQHQRTHTRV [ZSCAN30, Q86W11]",below the threshold
2,"NIAESLESLV [PTPRZ1, P23471]",below the threshold

# Biological target: LDB3, O75112
# Test: holdup assay
# Design: key: below the threshold = too weak to quantify, mostly under pKd 3.1 to 4
# Details: plain residues with an end cap or a label only (N-terminal biotin on a linker: ado-ado)
# LDB3, O75112, sequence (O75112 1-94): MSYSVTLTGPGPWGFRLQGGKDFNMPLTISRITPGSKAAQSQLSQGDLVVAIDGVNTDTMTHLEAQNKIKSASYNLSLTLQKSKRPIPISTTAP
row,Binder,pKd
1,"MQHQRTHTRV [ZSCAN30, Q86W11]",below the threshold
2,"NIAESLESLV [PTPRZ1, P23471]",below the threshold

# Biological target: MAGI1_1, Q96QZ7
# Test: holdup assay
# Design: key: below the threshold = too weak to quantify, mostly under pKd 3.1 to 4
# Details: plain residues with an end cap or a label only (N-terminal biotin on a linker: ado-ado)
# MAGI1_1, Q96QZ7, sequence (Q96QZ7 1-106): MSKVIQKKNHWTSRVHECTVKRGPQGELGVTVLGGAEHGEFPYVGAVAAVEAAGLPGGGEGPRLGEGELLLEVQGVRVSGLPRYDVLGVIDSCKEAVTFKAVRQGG
row,Binder,pKd
1,"MQHQRTHTRV [ZSCAN30, Q86W11]",below the threshold
2,"NIAESLESLV [PTPRZ1, P23471]",below the threshold

# Biological target: MAGI2_3, Q86UL8
# Test: holdup assay
# Design: key: below the threshold = too weak to quantify, mostly under pKd 3.1 to 4
# Details: plain residues with an end cap or a label only (N-terminal biotin on a linker: ado-ado)
# MAGI2_3, Q86UL8, sequence (Q86UL8 600-682): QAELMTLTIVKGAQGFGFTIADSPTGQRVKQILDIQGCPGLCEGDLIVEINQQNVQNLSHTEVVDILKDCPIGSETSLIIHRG
row,Binder,pKd
1,"MQHQRTHTRV [ZSCAN30, Q86W11]",below the threshold
2,"NIAESLESLV [PTPRZ1, P23471]",4.44

# Biological target: MAST2, Q6P0Q8
# Test: holdup assay
# Design: key: below the threshold = too weak to quantify, mostly under pKd 3.1 to 4
# Details: plain residues with an end cap or a label only (N-terminal biotin on a linker: ado-ado)
# MAST2, Q6P0Q8, sequence (Q6P0Q8 1099-1202): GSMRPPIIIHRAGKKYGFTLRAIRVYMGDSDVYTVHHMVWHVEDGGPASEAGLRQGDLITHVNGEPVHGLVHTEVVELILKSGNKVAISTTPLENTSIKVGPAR
row,Binder,pKd
1,"MQHQRTHTRV [ZSCAN30, Q86W11]",5.21
2,"NIAESLESLV [PTPRZ1, P23471]",4.79

# Biological target: T5, MPDZ_10, O75970
# Test: holdup assay
# Design: key: below the threshold = too weak to quantify, mostly under pKd 3.1 to 4
# Details: plain residues with an end cap or a label only (N-terminal biotin on a linker: ado-ado)
row,Binder,pKd
1,"MQHQRTHTRV [ZSCAN30, Q86W11]",3.7
2,"NIAESLESLV [PTPRZ1, P23471]",below the threshold

# Biological target: T6, MPDZ_5, O75970
# Test: holdup assay
# Design: key: below the threshold = too weak to quantify, mostly under pKd 3.1 to 4
# Details: plain residues with an end cap or a label only (N-terminal biotin on a linker: ado-ado)
row,Binder,pKd
1,"MQHQRTHTRV [ZSCAN30, Q86W11]",below the threshold
2,"NIAESLESLV [PTPRZ1, P23471]",below the threshold

# Biological target: T7, MPP7, Q5T2T1
# Test: holdup assay
# Design: key: below the threshold = too weak to quantify, mostly under pKd 3.1 to 4
# Details: plain residues with an end cap or a label only (N-terminal biotin on a linker: ado-ado)
row,Binder,pKd
1,"MQHQRTHTRV [ZSCAN30, Q86W11]",below the threshold
2,"NIAESLESLV [PTPRZ1, P23471]",below the threshold

# Biological target: NHERF2_2, Q15599
# Test: holdup assay
# Design: key: below the threshold = too weak to quantify, mostly under pKd 3.1 to 4
# Details: plain residues with an end cap or a label only (N-terminal biotin on a linker: ado-ado)
# NHERF2_2, Q15599, sequence (Q15599 142-238): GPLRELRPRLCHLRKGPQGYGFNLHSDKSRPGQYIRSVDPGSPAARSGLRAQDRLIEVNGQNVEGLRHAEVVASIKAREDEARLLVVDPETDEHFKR
row,Binder,pKd
1,"MQHQRTHTRV [ZSCAN30, Q86W11]",3.67
2,"NIAESLESLV [PTPRZ1, P23471]",below the threshold

# Biological target: T8, NHERF3_1, Q5T2W1
# Test: holdup assay
# Design: key: below the threshold = too weak to quantify, mostly under pKd 3.1 to 4
# Details: plain residues with an end cap or a label only (N-terminal biotin on a linker: ado-ado)
row,Binder,pKd
1,"MQHQRTHTRV [ZSCAN30, Q86W11]",4
2,"NIAESLESLV [PTPRZ1, P23471]",4.59

# Biological target: NHERF4_2, Q86UT5
# Test: holdup assay
# Design: key: below the threshold = too weak to quantify, mostly under pKd 3.1 to 4
# Details: plain residues with an end cap or a label only (N-terminal biotin on a linker: ado-ado)
# NHERF4_2, Q86UT5, sequence (Q86UT5 220-308): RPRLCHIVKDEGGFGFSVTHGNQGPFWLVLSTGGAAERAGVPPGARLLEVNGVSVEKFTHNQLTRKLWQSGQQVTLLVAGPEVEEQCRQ
row,Binder,pKd
1,"MQHQRTHTRV [ZSCAN30, Q86W11]",below the threshold
2,"NIAESLESLV [PTPRZ1, P23471]",below the threshold

# Biological target: NHERF4_4, Q86UT5
# Test: holdup assay
# Design: key: below the threshold = too weak to quantify, mostly under pKd 3.1 to 4
# Details: plain residues with an end cap or a label only (N-terminal biotin on a linker: ado-ado)
# NHERF4_4, Q86UT5, sequence (Q86UT5 464-550): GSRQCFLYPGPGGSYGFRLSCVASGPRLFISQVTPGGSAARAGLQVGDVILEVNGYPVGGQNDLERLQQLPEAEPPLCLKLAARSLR
row,Binder,pKd
1,"MQHQRTHTRV [ZSCAN30, Q86W11]",below the threshold
2,"NIAESLESLV [PTPRZ1, P23471]",below the threshold

# Biological target: NOS1, P29475
# Test: holdup assay
# Design: key: below the threshold = too weak to quantify, mostly under pKd 3.1 to 4
# Details: plain residues with an end cap or a label only (N-terminal biotin on a linker: ado-ado)
# NOS1, P29475, sequence (P29475 9-101): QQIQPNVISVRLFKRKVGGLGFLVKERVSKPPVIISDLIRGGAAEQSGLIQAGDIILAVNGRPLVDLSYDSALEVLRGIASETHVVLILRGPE
row,Binder,pKd
1,"MQHQRTHTRV [ZSCAN30, Q86W11]",3.91
2,"NIAESLESLV [PTPRZ1, P23471]",3.92

# Biological target: PARD3_3, Q8TEW0
# Test: holdup assay
# Design: key: below the threshold = too weak to quantify, mostly under pKd 3.1 to 4
# Details: plain residues with an end cap or a label only (N-terminal biotin on a linker: ado-ado)
# PARD3_3, Q8TEW0, sequence (Q8TEW0 582-685): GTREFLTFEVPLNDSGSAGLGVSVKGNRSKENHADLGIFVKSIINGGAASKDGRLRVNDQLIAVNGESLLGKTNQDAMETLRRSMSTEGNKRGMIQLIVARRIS
row,Binder,pKd
1,"MQHQRTHTRV [ZSCAN30, Q86W11]",below the threshold
2,"NIAESLESLV [PTPRZ1, P23471]",4.18

# Biological target: T9, PDZD2_2, O15018
# Test: holdup assay
# Design: key: below the threshold = too weak to quantify, mostly under pKd 3.1 to 4
# Details: plain residues with an end cap or a label only (N-terminal biotin on a linker: ado-ado)
row,Binder,pKd
1,"MQHQRTHTRV [ZSCAN30, Q86W11]",3.95
2,"NIAESLESLV [PTPRZ1, P23471]",5.37

# Biological target: PICK1, Q9NRD5
# Test: holdup assay
# Design: key: below the threshold = too weak to quantify, mostly under pKd 3.1 to 4
# Details: plain residues with an end cap or a label only (N-terminal biotin on a linker: ado-ado)
# PICK1, Q9NRD5, sequence (Q9NRD5 17-115): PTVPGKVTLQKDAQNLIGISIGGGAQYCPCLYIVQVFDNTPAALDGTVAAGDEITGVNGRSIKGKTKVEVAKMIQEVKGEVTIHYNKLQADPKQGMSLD
row,Binder,pKd
1,"MQHQRTHTRV [ZSCAN30, Q86W11]",below the threshold
2,"NIAESLESLV [PTPRZ1, P23471]",below the threshold

# Biological target: SCRIB_2, Q14160
# Test: holdup assay
# Design: key: below the threshold = too weak to quantify, mostly under pKd 3.1 to 4
# Details: plain residues with an end cap or a label only (N-terminal biotin on a linker: ado-ado)
# SCRIB_2, Q14160, sequence (Q14160 857-960): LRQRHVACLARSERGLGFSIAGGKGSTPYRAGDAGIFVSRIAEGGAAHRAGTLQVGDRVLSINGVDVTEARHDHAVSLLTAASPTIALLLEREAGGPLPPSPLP
row,Binder,pKd
1,"MQHQRTHTRV [ZSCAN30, Q86W11]",3.79
2,"NIAESLESLV [PTPRZ1, P23471]",3.66

# Biological target: T10, TX1BP3, O14907
# Test: holdup assay
# Design: key: below the threshold = too weak to quantify, mostly under pKd 3.1 to 4
# Details: plain residues with an end cap or a label only (N-terminal biotin on a linker: ado-ado)
row,Binder,pKd
1,"MQHQRTHTRV [ZSCAN30, Q86W11]",3.57
2,"NIAESLESLV [PTPRZ1, P23471]",4.26
